# Source: IntAct's records for PubMed 15378002
# B1: Transcription factor Jun (Homo sapiens), P05412 (parent)
# chain: MTAKMETTFYDDALNASFLPSESGPYGYSNPKILKQSMTLNLADPVGSLKPHLRAKNSDLLTSPDVGLLKLASPELERLIIQSSNGHITTTPTPTQFLCPKNVTDEQEGFAEGFVRALAELHSQNTLPSVTSAAQPVNGAGMVAPAVASVAGGSGSGGFSASLHSEPPVYANLSNFNPGALSSGGGAPSYGAAGLAFPAQPQQQQQPPHHLPQQMPVQHPRLQALKEEPQTVPEMPGETPPLSPIDMESQERIKAERKRMRNRIAASKCRKRKLERIARLEEKVKTLKAQNSELASTANMLREQVAQLKQKVMNHVNSGCQLMLTQQLQTF
# partner: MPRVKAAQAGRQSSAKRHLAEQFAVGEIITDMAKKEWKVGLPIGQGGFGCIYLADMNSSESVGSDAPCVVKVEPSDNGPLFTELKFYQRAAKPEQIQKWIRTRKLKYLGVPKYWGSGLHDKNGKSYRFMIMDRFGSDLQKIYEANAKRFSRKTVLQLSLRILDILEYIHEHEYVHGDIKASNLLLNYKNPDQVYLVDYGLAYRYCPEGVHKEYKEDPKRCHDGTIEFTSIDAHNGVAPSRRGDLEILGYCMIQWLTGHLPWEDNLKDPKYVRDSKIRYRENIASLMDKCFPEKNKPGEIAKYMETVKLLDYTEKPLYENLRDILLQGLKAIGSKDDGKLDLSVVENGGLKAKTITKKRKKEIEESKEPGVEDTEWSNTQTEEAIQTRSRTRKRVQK
# B2: Serine/threonine-protein kinase VRK1 (Homo sapiens), Q99986 (parent)
# chain: B1 partner
# Variants of: B1
# Settings: with vrk1_human VRK1, Q99986
row,Variant,effect of a mutation on the interaction
1,MTAKMETTFYDDALNASFLPSESGPYGYSNPKILKQSMTLNLADPVGSLKPHLRAKNSDLLTAPDVGLLKLAAPELERLIIQSSNGHITTTPTPTQFLCPKNVTDEQEGFAEGFVRALAELHSQNTLPSVTSAAQPVNGAGMVAPAVASVAGGSGSGGFSASLHSEPPVYANLSNFNPGALSSGGGAPSYGAAGLAFPAQPQQQQQPPHHLPQQMPVQHPRLQALKEEPQTVPEMPGETPPLSPIDMESQERIKAERKRMRNRIAASKCRKRKLERIARLEEKVKTLKAQNSELASTANMLREQVAQLKQKVMNHVNSGCQLMLTQQLQTF [S63A;S73A],decreasing interaction

# Variants of: B2
# Settings: with jun_human JUN, P05412
row,Variant,effect of a mutation on the interaction
1,MPRVKAAQAGRQSSAKRHLAEQFAVGEIITDMAKKEWKVGLPIGQGGFGCIYLADMNSSESVGSDAPCVVKVEPSDNGPLFTELKFYQRAAKPEQIQKWIRTRKLKYLGVPKYWGSGLHDKNGKSYRFMIMDRFGSDLQKIYEANAKRFSRKTVLQLSLRILDILEYIHEHEYVHGDIEASNLLLNYKNPDQVYLVDYGLAYRYCPEGVHKEYKEDPKRCHDGTIEFTSIDAHNGVAPSRRGDLEILGYCMIQWLTGHLPWEDNLKDPKYVRDSKIRYRENIASLMDKCFPEKNKPGEIAKYMETVKLLDYTEKPLYENLRDILLQGLKAIGSKDDGKLDLSVVENGGLKAKTITKKRKKEIEESKEPGVEDTEWSNTQTEEAIQTRSRTRKRVQK [K179E],disrupting interaction
